# Measured values reported in PMC7607744 (2020).
# No end group written: not given here.
# T1: CD138pep (also: FITC-labeled, site not given here)
# T1 chain: RKRLQVQLSIRT-NH2
# Biological target: T1, CD138pep
# Assay: flow cytometry binding to H929 cells
binder,measurement,value
CD138 (Syndecan-1) (protein) QIVATNLPPEDQDGSGDDSDNFSGSGAGALQDITLSQQTPSTWKDTQLLTAIPTSPEPTGLEATAASTSTLPAGEGPKEGEAVVLPEVEPGLTAREQEATPRPRETTQLPTTHLASTTTATTAQEPATSHPHRDMQPGHHETSTPAGPSQADLHTPHTEDGGPSATERAAEDGASSQLPAAEGSGEQDFTFETSGENTAVVAVEPDRRNQSPVDQGATGASQGLLDRKEVLG,Kd,3.1 µM
